Measurements taken from PMC10515186.

Tests used:
[1] = molecular target: SARS-CoV-2 spike protein (Hexapro S) (SARS-CoV-2)
[2] = molecular target: SARS-CoV-2 spike protein (Hexapro S) (SARS-CoV-2); test: dynamic light scattering
[3] = molecular target: SARS-CoV-2 spike protein (Hexapro S) (SARS-CoV-2); test: other fluorescence titration

Substance	EC50, plaque reduction assay, SARS-CoV-2 Munich isolate in Vero E6 cells [1]	lowest lectin concentration with a significant increase in hydrodynamic radius [2]	half-saturation point [3]
Burkholderia oklahomensis agglutinin (BOA) (natural protein)	9 nM	60 nM	–
Oscillatoria agardhii agglutinin (OAA) (natural protein)	–	125 nM	–
SeTau-405 fluorescently labeled BOA (natural protein)	–	–	30 to 60 nM
